Laboratory results from paper PMC4423566 (Nature communications, 2015).
Where two headings read alike, the source gives them in different places. One block for each molecule: values may come before it. Square brackets hold non-standard residues; d marks the D form. Peptide text beside a SMILES is read from it. * marks the point of attachment. X1 = CC(=O)N[C@@H]1[C@@H](O[C@@H]2O[C@H](CO)[C@H](O)[C@H](O)[C@H]2O)[C@@H](O)[C@@H](CO[C@@H]2O[C@H](CO)[C@@H](O[C@@H]3O[C@H](CO)[C@H](O)[C@H](O[C@]4(C(=O)O)C[C@H](O)[C@@H](NC(C)=O)[C@H]([C@H](O)[C@H](O)CO)O4)[C@H]3O)[C@H](O[C@@H]3O[C@@H](C)[C@@H](O)[C@@H](O)[C@@H]3O)[C@H]2NC(C)=O)O[C@@H]1*; sY = N[C@@H](Cc1ccc(OS(=O)(=O)O)cc1)C(=O)O; Mca = COc1ccc2c(CC(=O)*)cc(=O)oc2c1

Assays:
[1] = Temperature- and pH-dependent stability by RP-HPLC; assay type: physicochemical; conditions: pH 5, T = 37°C
P-selectin [2] = test: Microarray binding of glycopeptide mimics to selectin-Ig chimeras; design: species or system human and mouse; conditions: selectin-Ig chimeras 5-20 μg/mL, Alexa-488 anti-human IgG
L-selectin = conditions: cited from earlier work
P-selectin [3] = conditions: read-out: IC50 against P-selectin; cited from earlier work
E-selectin = conditions: cited from earlier work
[4] = target: recombinant mouse P-selectin Fc chimera (mouse) (UniProt Q01102); test: flow cytometry on cells
[5] = target: recombinant human P-selectin Fc chimera (human) (UniProt P16109); test: flow cytometry on cells
[6] = target: recombinant mouse P-selectin Fc chimera (mouse) (UniProt Q01102); test: flow cytometry on cells; remark: listed apart in the source
[7] = target: recombinant mouse L-selectin Fc chimera (mouse) (UniProt P18337); test: flow cytometry on cells
[8] = target: recombinant human P-selectin Fc chimera (human) (UniProt P16109); test: flow cytometry on cells; remark: listed apart in the source
human P-selectin = human P-selectin (Homo sapiens, UniProt P16109); conditions: cited from earlier work
GSnP-6 = test: SPR

Sequence of recombinant mouse L-selectin Fc chimera (mouse) (P18337 39-332, change not shown): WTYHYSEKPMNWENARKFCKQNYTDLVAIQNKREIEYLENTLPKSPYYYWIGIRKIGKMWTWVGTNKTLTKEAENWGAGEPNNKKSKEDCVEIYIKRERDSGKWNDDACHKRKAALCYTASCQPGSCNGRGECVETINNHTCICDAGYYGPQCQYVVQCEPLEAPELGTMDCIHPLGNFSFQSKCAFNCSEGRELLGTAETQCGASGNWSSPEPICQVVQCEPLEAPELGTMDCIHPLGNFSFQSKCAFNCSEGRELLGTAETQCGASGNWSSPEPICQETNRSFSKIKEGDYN

Molecule: COc1ccc2c(CC(=O)NCCCC[C@H](N)C(=O)N[C@@H](CCC(=O)O)C(=O)N[C@@H](Cc3ccc(OS(=O)(=O)O)cc3)C(=O)N[C@@H](CCC(=O)O)C(=O)N[C@@H](Cc3ccc(OS(=O)(=O)O)cc3)C(=O)N[C@@H](CC(C)C)C(=O)N[C@@H](CC(=O)O)C(=O)N[C@@H](Cc3ccc(OS(=O)(=O)O)cc3)C(=O)N[C@@H](CC(=O)O)C(=O)N[C@@H](Cc3ccccc3)C(=O)N[C@@H](CC(C)C)C(=O)N3CCC[C@H]3C(=O)N[C@@H](CCC(=O)O)C(=O)N[C@H](C(=O)N[C@@H](CCC(=O)O)C(=O)N3CCC[C@H]3C(=O)N[C@@H](CC(C)C)C(=O)O)[C@@H](C)O[C@H]3O[C@H](CO[C@@H]4O[C@H](CO)[C@@H](O[C@@H]5O[C@H](CO)[C@H](O)[C@H](O[C@]6(C(=O)O)C[C@H](O)[C@@H](NC(C)=O)[C@H]([C@H](O)[C@H](O)CO)O6)[C@H]5O)[C@H](O[C@@H]5O[C@@H](C)[C@@H](O)[C@@H](O)[C@@H]5O)[C@H]4NC(C)=O)[C@H](O)[C@H](O[C@@H]4O[C@H](CO)[C@H](O)[C@H](O)[C@H]4O)[C@H]3NC(C)=O)cc(=O)oc2c1 [GSP-6] (H-K(Mca)E[sY]E[sY]LD[sY]DFLPET(X1)EPL-OH)
stability at low pH [1]: rapidly degraded | microarray binding to P-selectin (in words) (P-selectin [2]): bound to P-selectin more strongly than to E- or L-selectin

Molecule: O=C(O)Cc1cccc(-c2cc(CCCCCCc3ccc(O[C@H]4O[C@H](CO)[C@@H](O)[C@H](O)[C@@H]4O)c(-c4cccc(CC(=O)O)c4)c3)ccc2O[C@H]2O[C@H](CO)[C@@H](O)[C@H](O)[C@@H]2O)c1 [bimosiamose, reference compound]
IC50 (L-selectin; read-out: IC50 against L-selectin): […] | IC50 (P-selectin [3]): 70 µM | IC50 (E-selectin; read-out: IC50 against E-selectin): […]

IC50 [4]: 28 µM | IC50 [5]: 14 µM | IC50 [6]: 19 µM | IC50 [7]: 30 µM | IC50 [8]: 20 µM
Molecule: GSnP-6 (peptide)

Molecule: PSGL-1 (from UniProt Q14242)
Kd (human P-selectin): 0.073 µM

Kd (GSnP-6): 0.022 µM
Molecule: recombinant human P-selectin Fc chimera (from UniProt P16109 42-771) (Fc fusion)

B1: P-selectin-glycoprotein-ligand-1 (protein, UniProt Q14242 42-412, looked up)
P-selectin glycoprotein …: QATEYEYLDYDFLPETEPPEMLRNSTDTTPLTGPGTPESTTVEPAARRSTGLDAGGAVTELTTELANMGNLSTDSAAMEIQTTQPAATEAQTTQPVPTEAQTTPLAATEAQTTRLTATEAQTTPLAATEAQTTPPAATEAQTTQPTGLEAQTTAPAAMEAQTTAPAAMEAQTTPPAAMEAQTTQTTAMEAQTTAPEATEAQTTQPTATEAQTTPLAAMEALSTEPSATEALSMEPTTKRGLFIPFSVSSVTHKGIPMAASNLSVNYPVGAPDHISVKQCLLAILILALVATIFFVCTVVLAVRLSRKGHMYPVRNYSPTEMVCISSLLPDGGEGPSATANGGLSKAKSPGLTPEPREDREGDDLTLHSFLP
Kd (L-selectin; read-out: Kd of PSGL-1 binding to L-selectin): 2 to 5 µM | Kd (E-selectin; read-out: Kd of PSGL-1 binding to E-selectin): 2 to 5 µM

fold lower affinity than P-Sel-Ig (GSnP-6): 25 fold
B2: E-sel-Ig (Biacore assay, species not stated) (Fc fusion)
chain: WSYNTSTEAMTYDEASAYCQQRYTHLVAIQNKEEIEYLNSILSYSPSYYWIGIRKVNNVWVWVGTQKPLTEEAKNWAPGEPNNRQKDEDCVEIYIKREKDVGMWNDERCSKKKLALCYTAACTNTSCSGHGECVETINNYTCKCDPGFSGLKCEQIVNCTALESPEHGSLVCSHPLGNFSYNSSCSISCDRGYLPSSMETMQCMSSGEWSAPIPACNVVECDAVTNPANGFVECFQNPGSFPWNTTCTFDCEEGFELMGAQSLQCTSSGNWDNEKPTCKAVTCRAVRQPQNGSVRCSHSPAGEFTFKSSCNFTCEEGFMLQGPAQVECTTQGQWTQQIPVCEAFQCTALSNPERGYMNCLPSASGSFRYGSSCEFSCEQGFVLKGSKRLQCGPTGEWDNEKPTCEAVRCDAVHQPPKGLVRCAHSPIGEFTYKSSCAFSCEEGFELHGSTQLECTSQGQWTEEVPSCQVVKCSSLAVPGKINMSCSGEPVFGTVCKFACPEGWTLNGSAARTCGATGHWSGLLPTCEAPTESNIP

fold change of Kd against human P-selectin (GSnP-6): 9 fold
B3: recombinant mouse P-selectin Fc chimera (Fc fusion)
chain: WTYNYSTKAYSWNNSRVFCRRHFTDLVAIQNKNEIAHLNDVIPFFNSYYWIGIRKINNKWTWVGTNKTLTEEAENWADNEPNNKKNNQDCVEIYIKSNSAPGKWNDEPCFKRKRALCYTASCQDMSCSNQGECIETIGSYTCSCYPGFYGPECEYVKECGKVNIPQHVLMNCSHPLGEFSFNSQCTFSCAEGYELDGPGELQCLASGIWTNNPPKCDAVQCQSLEAPPHGTMACMHPIAAFAYDSSCKFECQPGYRARGSNTLHCTGSGQWSEPLPTCEAIACEPPEIPIHGSMDCVPSTGTFGYNSSCTFLCAEGFVLKGNDAIQCADSGQWTAPAPFCEALQCPEFPVPSKAQVNCSDPFGTLTYQSVCSFSCDEGSLLVGASVIRCLATGHWNGAPPECQAVSCAPMLSPENGSMTCVQPLGNSTYKSTCQFMCDEGFYLSGPERLDCSPSGHWTGTPPTCEAIKCPGIFAPEQGNLDCSHVHGEFGVGSICHFSCNEDFELLGSENVECTVSGRWSAPPPTCKGITSLPAPAVRCPALTTPGQGTMSCQHHLGSFGPNTTCYFGCKTGFTLRGANSLRCRASGQWTAVTPMCRAVKCSELHMDTAVAMNCSNPWGNFSYGSTCTFQCPEGQSLNGSVRATCREDGHWSDAMPTCQAGTLTIQEA

fold lower affinity than P-Sel-Ig (GSnP-6): 25 fold
B4: L-sel-Ig (Biacore assay, species not stated) (Fc fusion)
chain: WTYHYSEKPMNWQRARRFCRDNYTDLVAIQNKAEIEYLEKTLPFSRSYYWIGIRKIGGIWTWVGTNKSLTEEAENWGDGEPNNKKNKEDCVEIYIKRNKDAGKWNDDACHKLKAALCYTASCQPWSCSGHGECVEIINNYTCNCDVGYYGPQCQFVIQCEPLEAPELGTMDCTHPLGNFSFSSQCAFSCSEGTNLTGIEETTCGPFGNWSSPEPTCQVIQCEPLSAPDLGIMNCSHPLASFSFTSACTFICSEGTELIGKKKTICESSGIWSNPSPICQKLDKSFSMIKEGDYN
